Assay results from PMC8538406.

Molecular target: CCR7-FKBP (DmrA) receptor chimaera, CCR7-M

## CXCR4-FRB (DmrC) receptor chimaera, CXCR4-H
  Matrigel transwell invasion of co-transfected MDA-MB-231 cells with ACH (AP21967), towards CCL19 and CXCL12 together: > 50%
